Assay results: patent US20140030270A1 (Amgen, published 2014)

How the values were obtained:
human PCSK9 (wild-type) = human PCSK9 (wild-type) (human, UniProt Q8NBP7 31-692, biotinylated in the ELISA formats (sites not given); untagged and unlabelled in Biacore/KinExA); test: cell-based or functional assay
human PCSK9 D374Y mutant = human PCSK9 D374Y mutant (human, UniProt Q8NBP7 31-692, biotinylated in the LDLR binding ELISAs (sites not given)); test: cell-based or functional assay

B1: 11F1 anti-PCSK9 antibody (antibody, V domains shown)
VH: EVQLVESGGGLVQPGGSLRLSCAASGFTFSNYWMSWVRQAPGKGLEWVASIKQDGSEKYYVDSVKGRFAISRDNAKNSLFLQMNSLRAEDTAVYYCARDLVLMVYDIDYYYYGMDVWGQGTTVTVSS
VL: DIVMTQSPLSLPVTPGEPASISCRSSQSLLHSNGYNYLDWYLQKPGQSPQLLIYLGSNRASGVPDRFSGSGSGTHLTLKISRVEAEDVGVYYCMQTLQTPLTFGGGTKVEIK
Q: How did the “EC50, block of WT PCSK9-mediated decrease in LDL uptake in HepG2 cells (BODIPY-LDL)” value (human PCSK9 (wild-type)) turn out when B1 was run?
A: 124 nM

Q: What about the “EC50, block of D374Y PCSK9-mediated decrease of LDL uptake in HepG2 cells (BODIPY-LDL)” value (human PCSK9 D374Y mutant) of the same binder?
A: 35.3 nM
